US20200206342A1

Key:
[1] = target: purified soluble 8his-tagged BG505 SOSIP.664 (T332N), wildtype (HIV-1 strain BG505); experiment: ELISA, his-tagged SOSIP on nickel-coated plate, peroxidase anti-human IgG-Fc, OD 630 nm
[2] = target: purified soluble 8his-tagged BG505-QES.i03.c01 SOSIP (HIV-1 strain BG505); experiment: ELISA, purified 8his SOSIP on nickel-coated plate
[3] = target: Q842.d12 Env P124D + F223Y + R557Q + I595M (Q842-QES.i04) (HIV-1 strain Q842.d12); experiment: flow cytometry titration on Expi293F cells
[4] = target: Q769.d22 Env A200E + F223Y + I595M (Q769-QES.i03) (HIV-1 strain Q769.d22); experiment: flow cytometry titration on Expi293F cells
[5] = target: BaL Env T49D + P124D + L663N (BaL-QES.i02) (HIV-1 strain BaL); experiment: flow cytometry titration on Expi293F cells
[6] = target: BaL Env T49D + P124D + I595M (BaL-QES.i01) (HIV-1 strain BaL); experiment: flow cytometry titration on Expi293F cells
[7] = target: BaL Env QES.i01 + I181L + V255M (QES.i01.c01) (HIV-1 strain BaL); experiment: flow cytometry titration on cells
[8] = target: Q769.d22 Env QES.i03 + V255M (QES.i03.V255M) (HIV-1 strain Q769.d22); experiment: flow cytometry titration on cells
[9] = target: Q842.d12 Env QES.i04 + I181L (QES.i04.I181L) (HIV-1 strain Q842.d12); experiment: flow cytometry titration on cells
[10] = target: 25711 Env I181L + V254T (QES.c02) (HIV-1 strain 25711); experiment: flow cytometry titration on cells
[11] = target: DU422 Env V181L + V254T + V255M (QES.c03) (HIV-1 strain DU422); experiment: flow cytometry titration on cells
[12] = target: F93G; experiment: flow cytometry, 2 nM PG16, transfected Expi293F cells, percent of cells in the positive gate (Negative: 0.5 %, 0.5 %)
[13] = target: C331I; experiment: as above
[14] = target: T248E; experiment: as above
[15] = target: K617Q; experiment: as above
[16] = target: W338A; experiment: as above
[17] = target: E634A; experiment: as above
[18] = target: I686R; experiment: as above
[19] = target: I251S; experiment: as above
[20] = target: F159V; experiment: as above
[21] = target: I491S; experiment: as above
[22] = target: BaL Env gp160 wildtype (HIV-1 strain BaL); experiment: as above
[23] = target: W614A; experiment: as above
[24] = target: V208G; experiment: as above
[25] = target: V36R; experiment: as above
[26] = target: T319K; experiment: as above
[27] = target: Y191I; experiment: as above
[28] = target: Q540V; experiment: as above
[29] = target: D133W; experiment: as above
[30] = target: I201M; experiment: as above
[31] = target: S199C; experiment: as above
[32] = target: F223L; experiment: as above
[33] = target: purified soluble 8his-tagged BG505-QES.i03.c01 SOSIP (HIV-1 strain BG505); experiment: ELISA, his-tagged SOSIP on copper-coated plate, peroxidase anti-human IgG-Fc, OD 630 nm
[34] = target: purified soluble 8his-tagged BG505 SOSIP.664 (T332N), wildtype (HIV-1 strain BG505); experiment: as above
[35] = target: DU422 gp140 (surface-displayed ectodomain) (HIV-1 strain DU422); experiment: apparent dissociation constant, flow cytometry on Expi293F cells
[36] = target: Q769.d22 Env gp160 wildtype (HIV-1 strain Q769.d22); experiment: apparent KD, flow cytometry titration on Expi293F cells
[37] = target: Q842.d12 Env P124D + F223Y + R557Q + I595M (Q842-QES.i04) (HIV-1 strain Q842.d12); experiment: as above
[38] = target: Q769.d22 Env A200E + F223Y + I595M (Q769-QES.i03) (HIV-1 strain Q769.d22); experiment: as above
[39] = target: BaL Env gp160 wildtype (HIV-1 strain BaL); experiment: as above
[40] = target: Q842.d12 Env gp160 wildtype (HIV-1 strain Q842.d12); experiment: as above
[41] = target: BaL Env T49D + P124D + L663N (BaL-QES.i02) (HIV-1 strain BaL); experiment: as above
[42] = target: BaL Env T49D + P124D + I595M (BaL-QES.i01) (HIV-1 strain BaL); experiment: as above
[43] = target: Q842.d12 Env gp160 wildtype (HIV-1 strain Q842.d12); experiment: flow cytometry titration, transfected cells expressing the Env
[44] = target: Q842.d12 Env P124D + F223Y + R557Q + I595M (Q842-QES.i04) (HIV-1 strain Q842.d12); experiment: flow cytometry, Expi293F cells

Question: Which results are given for CD4-IgG2 (Fc fusion)?
Answer: EC50 (read off the curve) [1]: 0.08 µg/mL; fold reduction of apparent affinity against wildtype [2]: 5.5 fold

Question: What does the source list for PG16 (antibody)?
Answer: fold increase in PG16 binding signal at saturation against wildtype [3]: 2.4 fold; fold higher binding at saturation against wildtype [4]: 2.7 fold; fold increase in PG16 binding at saturation against wildtype [5]: 1.6 fold; fold increase in PG16 binding at saturation against wildtype [6]: 1.6 fold; fold more PG16 bound at saturation against wildtype [7]: < 5 fold; fold more PG16 bound at saturation against wildtype [8]: < 5 fold; fold more PG16 bound at saturation against wildtype [9]: < 5 fold; fold more PG16 bound at saturation against wildtype [10]: < 5 fold; fold more PG16 bound at saturation against wildtype [11]: < 5 fold; percent positive cells (first of two replicates) [12]: 1.4%; percent positive cells (second of two replicates) [12]: 2.1%; percent positive cells (first of two replicates) [13]: 1.4%; percent positive cells (second of two replicates) [13]: 1.9%; percent positive cells (first of two replicates) [14]: 1.1%; percent positive cells (second of two replicates) [14]: 2%; percent positive cells (first of two replicates) [15]: 15%; percent positive cells (second of two replicates) [15]: 14.8%; percent positive cells (first of two replicates) [16]: 1.3%; percent positive cells (second of two replicates) [16]: 2%; percent positive cells (first of two replicates) [17]: 11.1%; percent positive cells (second of two replicates) [17]: 9.3%; percent positive cells (first of two replicates) [18]: 5%; percent positive cells (second of two replicates) [18]: 5.9%; percent positive cells (first of two replicates) [19]: 6.1%; percent positive cells (second of two replicates) [19]: 4.2%; percent positive cells (first of two replicates) [20]: 1.4%; percent positive cells (second of two replicates) [20]: 1.7%; percent positive cells (first of two replicates) [21]: 1.3%; percent positive cells (second of two replicates) [21]: 2.1%; percent positive cells (first of two replicates) [22]: 38%; percent positive cells (second of two replicates) [22]: 36.2%; percent positive cells (first of two replicates) [23]: 1.2%; percent positive cells (second of two replicates) [23]: 2.1%; percent positive cells (first of two replicates) [24]: 21.6%; percent positive cells (second of two replicates) [24]: 22.5%; percent positive cells (first of two replicates) [25]: 2.1%; percent positive cells (second of two replicates) [25]: 2.6%; percent positive cells (first of two replicates) [26]: 20.3%; percent positive cells (second of two replicates) [26]: 18.8%; percent positive cells (first of two replicates) [27]: 1.9%; percent positive cells (second of two replicates) [27]: 1.9%; percent positive cells (first of two replicates) [28]: 2.4%; percent positive cells (second of two replicates) [28]: 3%; percent positive cells (first of two replicates) [29]: 16%; percent positive cells (second of two replicates) [29]: 16%; percent positive cells (first of two replicates) [30]: 29.5%; percent positive cells (second of two replicates) [30]: 29.8%; percent positive cells (first of two replicates) [31]: 1.2%; percent positive cells (second of two replicates) [31]: 1.6%; percent positive cells (first of two replicates) [32]: 11.2%; percent positive cells (second of two replicates) [32]: 10.7%; EC50 (read off the curve) [33]: 0.2 nM; EC50 (read off the curve) [34]: 0.4 nM; Kd [35]: 5 nM; Kd [36]: 5 nM; Kd [37]: 5 nM; Kd [38]: 3.7 nM; Kd [39]: 4 nM; Kd [40]: 3.4 nM; Kd [41]: 1.4 nM; Kd [42]: 1.2 nM

Question: How did the EC50 (read off the curve) [43] turn out when PGT145 (antibody) was run?
Answer: Its EC50 (read off the curve) is 0.5 nM.

Question: With VRC01 (antibody) as the substance, how does the EC50 (read off the curve) [33] read?
Answer: Its EC50 (read off the curve) is 1 nM.

Question: And the EC50 (read off the curve) [34]?
Answer: Its EC50 (read off the curve) is 1 nM.

Question: What does the source list for “soluble CD4 sCD4-183 (domains D1-D2) (from UniProt P01730 26-208) (receptor)”?
Answer: fold increase in soluble CD4 binding against wildtype [44]: 3 fold; Kd [35]: 18 nM
